Laboratory results published in patent US20240279845A1, “METHOD FOR PREPARING A LIBRARY OF PEPTIDES OR A PEPTIDE” (ECOLE POLYTECHNIQUE FEDERALE DE LAUSANNE (EPFL), priority 2021, published 2024).

What was measured:
[1] = tested on: Cc1cc(=O)oc2cc(NC(=O)[C@H](CCCNC(=N)N)NC(=O)[C@@H]3CCCN3C(=O)[C@@H](NC(=O)OC(C)(C)C)C(C)C)ccc12; test: Substrate KM for protease screen, KLK5; type: biochemical; details: other: KLK5
Method: (§1) Crude macrocyclic libraries (4 mM DMSO stocks in 384-well LDV plates were transferred into 1536-well microtiter OptiPlates via ADE. Applied buffered solutions were prepared by filtration through PTFE syringe filters (0.22 μm) and assays were initiated by addition of protease (4.41 μl/well) in appropriate buffer (see list below) supplemented with bovine serum albumin (BSA; 0.1% w/v) and dispensed using a CERTUS automated liquid handler. Plates were incubated for 10 min at ambient temperature before fluorogenic substrate in appropriate buffer (4.5 μl) was added using a CERTUS automated liquid handler. Plates were centrifugated (800 g, 2 min) and fluorescence intensity was measured using a PHERAstar plate reader (excitation 384 nm, emission 440 nm) in time increments of 150 s over 15 min. Slopes of fluorescence increase (m) were calculated with Microsoft Excel (vers. 16.56). Negative controls were prepared without macrocycle. An average of 12 negative controls was used to calculate residual activities using Equation I below: […]
(§2) where [S]0 is the initial substrate concentration and KM is the Michaelis-Menten constant^12 for the enzyme and substrate.

[2] = tested on: Cc1cc(=O)oc2cc(NC(=O)[C@H](CCCNC(=N)N)NC(=O)[C@H](Cc3ccccc3)NC(=O)OCc3ccccc3)ccc12; test: Substrate KM for protease screen, PKal; type: biochemical; details: other: PKal
Method: as §1, §2

Chain of PKal (Homo sapiens) (chain, as listed by the source): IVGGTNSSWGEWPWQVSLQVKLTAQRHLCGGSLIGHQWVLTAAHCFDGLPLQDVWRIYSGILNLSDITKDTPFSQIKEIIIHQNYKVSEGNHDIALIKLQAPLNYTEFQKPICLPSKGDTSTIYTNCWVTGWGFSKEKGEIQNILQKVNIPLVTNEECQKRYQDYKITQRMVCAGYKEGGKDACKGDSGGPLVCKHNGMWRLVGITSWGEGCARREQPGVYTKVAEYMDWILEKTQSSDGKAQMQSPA

Substance | Km [1] [µM] | Km [2] [µM]
KLK5 (Homo sapiens) | 200 ± 10 | –
PKal (Homo sapiens) | – | 120 ± 28
